{"source": "patent US6514747B2", "about": "(UT-Battelle, LLC, priority 1993, dated 2003)", "key": {"untransfected 293 cells": {"tested_on": "untransfected 293 cells", "test": "adenylyl cyclase assay in untransfected 293 cells", "format": "cell-based, human", "conditions": "agouti 0.7 nM", "protocol": "293 cells (5×10^5) and 293 cells expressing human TSH-R were preloaded with 5 μCi ^3H-adenine for 1.5 h at 37° C. in a 5% CO2 incubator.\nMedium was aspirated and 2.5% perchloric acid containing 0.1 mM cAMP was used to stop the incubation. Adenylyl cyclase activity was calculated by determining the percent conversion of ^3H-adenine to ^3H-cAMP as described (Salomon, 1991; Johnson and Salomon, 1991). Correlation of cAMP accumulation measured in this assay with actual adenylyl cyclase activity is made under the assumption that isobutymethylxanthine effectively blocks cAMP degradation. Data represent means and standard deviations from triplicate data points."}, "human MC4-R": {"target": "T1, human MC4-R (Homo sapiens, UniProt P32245)", "T1 construct": "expressed in transfected cells; host or cells: 293 cells", "T1 sequence (P32245 whole entry)": "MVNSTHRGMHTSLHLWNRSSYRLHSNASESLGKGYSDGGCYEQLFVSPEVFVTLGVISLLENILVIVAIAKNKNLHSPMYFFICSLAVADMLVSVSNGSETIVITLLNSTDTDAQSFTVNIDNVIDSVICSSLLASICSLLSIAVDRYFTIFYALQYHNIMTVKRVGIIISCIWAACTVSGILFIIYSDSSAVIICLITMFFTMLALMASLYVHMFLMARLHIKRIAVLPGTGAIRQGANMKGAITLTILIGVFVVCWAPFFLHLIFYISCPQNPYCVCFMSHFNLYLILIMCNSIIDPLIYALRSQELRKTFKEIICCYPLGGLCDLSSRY", "test": "α-MSH activation of human MC4-R in transfected 293 cells (adenylyl cyclase)", "format": "cell-based"}, "[1]": {"target": "T2, human melanocortin 1 receptor (hMC1R) (Homo sapiens, UniProt Q01726)", "T2 construct": "The coding region of the human melanocortin 1, 3, and 5 receptor (hMC1R, hMC3R, and hMC5R) genes was amplified; expressed in transfected cells; host or cells: HEK-293 cells, cotransfected with pMT4 construct and pRSV-Neo, geneticin-selected clones", "T2 sequence (Q01726 whole entry)": "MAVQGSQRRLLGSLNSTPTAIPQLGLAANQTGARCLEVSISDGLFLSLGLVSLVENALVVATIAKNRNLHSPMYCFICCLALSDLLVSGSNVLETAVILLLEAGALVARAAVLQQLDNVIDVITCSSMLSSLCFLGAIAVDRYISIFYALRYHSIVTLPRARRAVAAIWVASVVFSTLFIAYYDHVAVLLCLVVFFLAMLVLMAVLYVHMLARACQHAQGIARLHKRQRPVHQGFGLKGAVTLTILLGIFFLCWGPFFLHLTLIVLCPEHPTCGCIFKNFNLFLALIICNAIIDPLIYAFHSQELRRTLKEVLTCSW", "test": "[Ca2+]i in HEK-293 cells transfected with hMC1R", "format": "cell-based", "conditions": "FIG. 48, plateau at 400 s", "protocol": "The coding region of the human melanocortin 1, 3, and 5 receptor (hMC1R, hMC3R, and hMC5R) genes was amplified by polymerase chain reaction and subcloned into the vector pMT4, and the sequence was verified. HEK-293 cells, which appear to lack endogenous melanocortin receptors (Lu et al., 1994), were cotransfected with pMT4 and pRSV-Neo by either calcium phosphate coprecipitation method or the use of Transfectam reagent (Promega). Clones were selected using 600 μg geneticin/ml. culture medium.\n[Ca^2+]i was measured in L6, A7r5, and HEK-293 cells (Zemel et al., 1995) as previously described and in 3T3-L1 cells as described by Klip and Ramlal (1987). Monolayers of nonfused L6 cells and confluent A7r5 cells after 14-16 h of starvation in a serum-free culture medium were rinsed with Hanks' balanced salt solution (HBSS), detached by incubation in 2 ml trypsin (0.05%) for 2-3 min at 37° C., and released by pipetting without trypsinization. Cells were harvested by centrifugation at 50 g and resuspended in 1 ml HBSS at a density of ˜10^6 cells/ml. For 3T3-L1 cells, monolayers of differentiated adipocytes were rinsed with serum-free DMEM and exposed to 0.05% trypsin for 3 min. The solution was decanted, and the cells were incubated for 3 min in culture medium. Cells were detached by pipetting and collected by centrifugation at 50 g. Cells were then incubated in culture medium to recover for 1 h followed by incubation in serum-free DMEM for 4 h at 37° C. in an atmosphere of 5% CO2, collected by centrifugation, and resuspended in HBSS at a density of ˜10^6 cells/ml. Cell suspensions were chilled on ice for 5 min and loaded with […] (final concn) fura 2 acetoxymethyl ester (AM; Sigma) in the dark for 20 min at 37° C. For 3T3-L1 adipocytes, the chilling step was skipped. […] [Ca^2+]i levels were then measured fluorometrically in suspensions using dual excitation (340 and 380 nm)-single emission (510 nm) fluorometry as previously described (Zemel et al., 1995). [Ca^2+]i was then calculated by the computer in the fluorometer with the equation of Grynkiewicz et al. (1985). […]"}}}
{"molecule": "agouti: recombinant mouse agouti protein (131 amino acids, SEQ ID NO:2) produced with the baculovirus expression system in T. ni cells (protein, listed as Mus musculus) MDVTRLLLATLVSFLCFFTVHSHLALEETLGDDRSLRSNSSMNSLDFSSVSIVALNKKSKKISRKEAEKRKRSSKKKASMKKVARPPPPSPCVATRDSCKPPAPACCDPCASCQCRFFGSACTCRVLNPNC", "values": [{"measurement": "effect on basal adenylyl cyclase levels", "setting": "untransfected 293 cells", "value": "no effect"}, {"measurement": "antagonism of α-MSH activation", "setting": "human MC4-R", "value": "potent antagonist"}, {"measurement": "Vmax of [Ca2+]i dose-response fit", "setting": "[1]", "value": "108.2±1.337"}, {"measurement": "EC50", "setting": "[1]; read-out: K of [Ca2+]i dose-response fit", "value": "18.4 ± 0.706", "unit": "nM"}]}
